Our source for the protein stability index values is the supplement of paper PMC10567573.

± gives the standard deviation.

The nature of the series: protein stability index of a GFP-peptide fusion (GPS, HEK-293T) (PSI 1-6); higher = more stable.
[1] abbreviates: treatment: DMSO, c terminus: a fixed tail appended.
The mark [2] stands for this setting: treatment: MLN4924 1 uM, 8 h, c terminus: a fixed tail appended.
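Also: 24-mer peptide tiles fused after GFP, lentivirally expressed, FACS-sorted into six equal bins by GFP/DsRed ratio, decoded by Illumina sequencing, PSI is the read-weighted mean bin number.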

Regarding TLLQDHENQRLFEMLGRKCLTLAT [WAS], the protein stability index worked out at 2.37 ± 0.29 under setting [1] and 2.33 ± 0.28 under setting [2].

Regarding TLQNGRRHIHHLGNQLQLNQHCLD [BRF1], the protein stability index under setting [1] amounted to 3.1 ± 0.034 and the protein stability index under setting [2] stood at 3.31 ± 0.097.

For the sequence TLVQDLANAFQQEAQTSGKERLLL [CHIT1], the protein stability index stood at 3.16 ± 0.3 under setting [1] and 2.91 ± 0.19 under setting [2].

With TMLKAMFSGRMEVLTDSEGWILID [KCTD10], the protein stability index runs as follows: under setting [1], 2.51 ± 0.57; under setting [2], 2.75 ± 0.46.

Consider TNLVLPSNGSMHNYCPQQTKITSA [EDNRA], for which the protein stability index turned out to be 3.75 ± 0.13 under setting [1] and 3.63 ± 0.14 under setting [2].

In turn, TNTGPAGSSASTSPAPLDTCPSSS [DYRK1B] came in with a protein stability index under setting [1] of 5.24 ± 0.17 and a protein stability index under setting [2] of 5.31 ± 0.18.

TPATTTEPPKPTFPAYTQSTASTT [ZNF207]: the protein stability index is, setting by setting: under setting [1], 4.99 ± 0.12; under setting [2], 5.1 ± 0.15.

For the sequence TPTPQALYPDLSCPEGLEELLSAP [SPSB2], the protein stability index came out at 4.54 ± 0.24 under setting [1] and 4.55 ± 0.3 under setting [2].

As to TQEPIFTFTASFSGKVFPFFAVWK [TRIM15], the protein stability index by setting is: under setting [1], 3.19 ± 0.36; under setting [2], 2.89 ± 0.66.

In the case of TQIGFADLMGVLTKGVREVERALQ [FEM1A], the protein stability index is, setting by setting: under setting [1], 2.29 ± 0.61; under setting [2], 2.28 ± 0.45.

Turning to TQQFKAEKLKEKLKMKEREEAWVK [PPP2R5C], the protein stability index came out at 3.26 ± 0.64 under setting [1] and 3.72 ± 0.62 under setting [2].

For the sequence TQRPAMVQTEDQYQFSYRAALEYL [PTPRD], the protein stability index reads like this: under setting [1], 2.91 ± 0.35; under setting [2], 3.06 ± 0.31.

On to TRCKSSEEKKPGELKRLVESRRQQ [TRIM39], for which the protein stability index came out at 5 ± 0.32 under setting [1] and 5.02 ± 0.27 under setting [2].

TSGKRYVYRFVCDLQNLLGFTPEE [ETS2]: the protein stability index is, setting by setting: under setting [1], 2.56 ± 0.63; under setting [2], 2.89 ± 0.84.

In turn, TSRAPSTYTYTSRPRALPCQRSRY [RSPH3] displayed a protein stability index under setting [1] of 3.65 ± 0.15 and a protein stability index under setting [2] of 3.84 ± 0.31.

In the case of TSVEECSQKGCLALSLLELLGFNL [CLCN6], the protein stability index runs as follows: under setting [1], 2.57 ± 0.68; under setting [2], 2.37 ± 0.15.

Sequence TSYTRQACLVSCFQQLMVETCSCG [SCNN1D] yielded a protein stability index under setting [1] of 2.48 ± 0.53 and a protein stability index under setting [2] of 2.31 ± 0.27.

Take TTGSKELDKLLQGGIETGSITEMF [RAD51]: the protein stability index by setting is: under setting [1], 3.51 ± 0.27; under setting [2], 3.76 ± 0.51.

As to TTSETQKSVQCGTWTKHAEGGIFT [NETO1], the protein stability index reads like this: under setting [1], 3.59 ± 0.085; under setting [2], 3.62 ± 0.23.

For TTTSAATATTAPPALDIFGDLFES [SNAP91], the protein stability index reads like this: under setting [1], 4.47 ± 0.1; under setting [2], 4.68 ± 0.16.

For the sequence TVCGDLHGQLDDLIFIFYKNGLPS [PPEF2], the protein stability index reads like this: under setting [1], 2.87 ± 2.1; under setting [2], 1.94 ± 0.41.

As to TVECYNPRTNEWTYVAKMSEPHYG [KLHL13], the protein stability index reads like this: under setting [1], 2.36 ± 0.1; under setting [2], 2.52 ± 0.72.

Regarding TVPGQALACGSNRFNKLGLDHLSL [NEK8], the protein stability index is 2.44 ± 0.34 under setting [1] and 2.45 ± 0.12 under setting [2].

Consider TVTSVSCCHGNTLLAVRSVTDEPV [NEK8], for which the protein stability index worked out at 3.21 ± 0.23 under setting [1] and 3.14 ± 0.33 under setting [2].

For the sequence TVYKARDPHSGHFVALKSVRVPNG [CDK4], the protein stability index reads like this: under setting [1], 2.31 ± 0.48; under setting [2], 2.68 ± 0.49.

On to TWGKNKPGIGAVILKRFCWLLLQ [FAN1], for which the protein stability index is, setting by setting: (treatment: DMSO, c terminus: native) 3.45 ± 0.45; (treatment: MLN4924 1 uM, 8 h, c terminus: native) 2.87 ± 0.53.

Regarding TWHDERFLYMLMEYVPGGELFSYL [PRKX], the protein stability index runs as follows: under setting [1], 2.85 ± 0.7; under setting [2], 2.75 ± 0.35.

Regarding TYVGALFNGLTLLLMAVVSMFTLP [RTN1], the protein stability index worked out at 3 ± 0.58 under setting [1] and 3.43 ± 0.38 under setting [2].

VCGKSFSRTTCLFLHLRTHTEERP [ZNF8] showed a protein stability index under setting [1] of 2.23 ± 0.56 and a protein stability index under setting [2] of 1.93 ± 0.38.

Turning to VDADAGHNAWLSYSLLPQSTAPGL [PCDHGC5], the protein stability index amounted to 2.87 ± 0.33 under setting [1] and 3 ± 0.26 under setting [2].

Consider VEKEEEPDPEPPPVTPQVGEGRKS [SMG5], for which the protein stability index reads like this: under setting [1], 5.48 ± 0.13; under setting [2], 5.53 ± 0.21.

Consider VEVLGPYEPLLSRVQAALVWERPA [RETREG3], for which the protein stability index worked out at 2.37 ± 0.39 under setting [1] and 2.48 ± 0.24 under setting [2].

Regarding VFSDTATPDIKSHYAFRIFDFDDD [CIB1], the protein stability index reads like this: under setting [1], 3.19 ± 0.27; under setting [2], 3.18 ± 0.42.

Turning to VFYLWSAIEIFRYSFYMLTCIDMD [HACD3], the protein stability index was 3.13 ± 0.15 under setting [1] and 3.5 ± 0.47 under setting [2].

As for VGGYGTRLRPLTLSTPKPLVDFCN [GMPPB], the protein stability index amounted to 2.41 ± 0.16 under setting [1] and 2.46 ± 0.14 under setting [2].

Turning to VGIFHLMQIAVPCAFLLLRLLVGL [TMEM175], the protein stability index reads like this: under setting [1], 2.81 ± 0.45; under setting [2], 2.82 ± 0.47.

In turn, VHQRTHTGEKPHTCSECGKGFIQK [ZNF649] yielded a protein stability index under setting [1] of 3.67 ± 0.28 and a protein stability index under setting [2] of 3.52 ± 0.58.

Regarding VIEAIAQITVKALPKPPGTPVVTE [PTPRD], the protein stability index by setting is: under setting [1], 2.3 ± 0.4; under setting [2], 2.16 ± 0.27.

As to VIKYNVNDKFSFHEVKDNYIPVIK [RHOBTB3], the protein stability index was determined as 2.21 ± 0.44 under setting [1] and 2.75 ± 0.34 under setting [2].

As for VKRLHEVGRTEPELLVAHAYTRYL [HMOX1], the protein stability index under setting [1] was 2.2 ± 0.26 and the protein stability index under setting [2] worked out at 2.4 ± 0.36.

As to VLENNLEAVARHMLIFSLALEEPE [DNAAF3], the protein stability index was 2.74 ± 1.1 under setting [1] and 2.52 ± 0.37 under setting [2].

For VLEQEETAAASRERQEEQSAAIHI [EPB41L3], the protein stability index by setting is: under setting [1], 5.33 ± 0.24; under setting [2], 5.16 ± 0.23.

As for VLGGFLYAVGGSDGTSPLNTVERY [KLHL20], the protein stability index was 2.18 ± 0.32 under setting [1] and 2.47 ± 0.22 under setting [2].

Take VLGIPLTLVMFQSLGERMNTFVRY [KCNK9]: the protein stability index runs as follows: under setting [1], 3.24 ± 0.65; under setting [2], 2.83 ± 0.48.

For the sequence VLSYLGLLSQEKLQEQHLSSPQGV [BCL2L13], the protein stability index is 2.29 ± 0.31 under setting [1] and 2.32 ± 0.38 under setting [2].

In the case of VLYLMMPIVNISEVLGPLCLMLLM [PHTF1], the protein stability index was 3.07 ± 0.62 under setting [1] and 2.67 ± 0.47 under setting [2].

For VMKLEISPHRKRSDDSDEDEPCAI [DLC1], the protein stability index runs as follows: under setting [1], 5.21 ± 0.52; under setting [2], 4.93 ± 0.28.

Regarding VNKVCGAACSSKRSPIIDVKNDRD [SERPINB5], the protein stability index is, setting by setting: under setting [1], 3.77 ± 0.33; under setting [2], 3.89 ± 0.15.

As for VPGHQTPSDLDQFSDSSLIEDSQA [LURAP1L], the protein stability index by setting is: under setting [1], 5.39 ± 0.15; under setting [2], 5.41 ± 0.17.

Consider VPGHRSERAIRTQPKQLIVDDLKG [SPRY1], for which the protein stability index is, setting by setting: under setting [1], 4.25 ± 0.34; under setting [2], 4.13 ± 0.47.

For the sequence VQEHARCVHPRGGVIQSVSSWKHG [C18orf25], the protein stability index under setting [1] worked out at 3.08 ± 0.28 and the protein stability index under setting [2] amounted to 3.03 ± 0.4.

Consider VQFHRHHGQEGSILVTKVEEPSKY [GMPPB], for which the protein stability index was found to be 3.45 ± 0.31 under setting [1] and 3.58 ± 0.27 under setting [2].

Turning to VQQDPALSSNREAHQHRDKMQQSK [CSNK1G3], the protein stability index is, setting by setting: under setting [1], 5.16 ± 0.54; under setting [2], 5.27 ± 0.21.

VRGHHPKSGEEAVTVLEDLEKGLE [ZNF232]: the protein stability index reads like this: under setting [1], 4.73 ± 0.21; under setting [2], 4.72 ± 0.63.

Turning to VRKHPAVKEKGSTLDLSDLEAEKL [SCD], the protein stability index under setting [1] came to 5.12 ± 0.3 and the protein stability index under setting [2] was 4.82 ± 0.14.

VSLSLENRELWKEFSSVGTEMIIT [TBX6]: the protein stability index came to 2.71 ± 0.62 under setting [1] and 2.31 ± 0.45 under setting [2].

With VSRLTDTTKFTGSHKERFDPSGKG [TPPP], the protein stability index under setting [1] was determined as 4.39 ± 0.1 and the protein stability index under setting [2] turned out to be 4.5 ± 0.22.

As for VSRREGALGWAPAAPPPLKDDPEG [ZBED3], the protein stability index runs as follows: under setting [1], 5.24 ± 0.37; under setting [2], 5.43 ± 0.12.

As to VSSSEQLQSYQAEIIELRRTVNAL [KRT33B], the protein stability index was 3.12 ± 0.22 under setting [1] and 3.2 ± 0.42 under setting [2].

VVNTDHGSPEQLQIPVTDSGRHIL [SDE2]: the protein stability index reads like this: under setting [1], 4.18 ± 0.15; under setting [2], 4.29 ± 0.45.

As to VWDLNMEARPIETYQVHDYLRSKL [PPP2R2C], the protein stability index under setting [1] stood at 2.42 ± 0.43 and the protein stability index under setting [2] was determined as 2.55 ± 0.095.

For the sequence VWNRKLDLLCKTSHLSDTGISALV [WDR41], the protein stability index runs as follows: under setting [1], 2.26 ± 0.27; under setting [2], 2.2 ± 0.34.

As to VWTSPRRLVELAGQSLLKDEALAI [PRAME], the protein stability index reads like this: under setting [1], 3.36 ± 0.15; under setting [2], 3.34 ± 0.21.

For WAANAGVTASPPTDLIWKNQNSWG [LMNB1], the protein stability index was determined as 2.46 ± 0.26 under setting [1] and 2.48 ± 0.5 under setting [2].

In the case of WELVVLGKLKWNLAAVTPHDFIEH [CCND2], the protein stability index was determined as 2.7 ± 0.71 under setting [1] and 2.62 ± 0.39 under setting [2].

As to WFKTRRKEMTQKLEALHLEALCEE [DENND6A], the protein stability index reads like this: under setting [1], 3.29 ± 0.27; under setting [2], 3.88 ± 0.42.

Turning to WFSDPSDTALLNLLPMLDALRFTA [CTDNEP1], the protein stability index was 2.73 ± 0.58 under setting [1] and 2.98 ± 0.67 under setting [2].

As for WGHCEVTMRYINGLDPEPLPLMDL [SPSB4], the protein stability index stood at 2.49 ± 0.26 under setting [1] and 2.5 ± 0.4 under setting [2].

WIIKSNYQGLPVRCVKSIIRQVLQ [SRPK2] returned a protein stability index under setting [1] of 2.75 ± 0.48 and a protein stability index under setting [2] of 2.78 ± 0.5.

Take WLQERYEIVGNLGEGTFGKVVECL [CLK3]: the protein stability index is, setting by setting: under setting [1], 2.24 ± 0.068; under setting [2], 2.27 ± 0.12.

The sequence WLRVLNPDLVKGPWTKEEDQKVIE [MYBL2] showed a protein stability index under setting [1] of 2.61 ± 0.36 and a protein stability index under setting [2] of 2.92 ± 0.18.

As to WTFYPRFSSNIHTYHVGKQCFFNG [SPATS1], the protein stability index was 2.74 ± 0.53 under setting [1] and 2.24 ± 0.33 under setting [2].
